# Measurements from publication PMC10234869.
# How the values were obtained:
# [1] = target: Signal Peptide Peptidase-like 2c, C-terminally myc-tagged (SPPL2c-myc) (murine) (UniProt A2A6C4)
# [2] = target: Frey1 CD74-Lum (Frey1-3xFLAG with its luminal domain replaced by the first 70 aa of the luminal segment of CD74) (murine) (UniProt Q8CF31); assay: co-IP; anti-FLAG M2 and Protein G agarose from 0.5% CHAPSO lysates (1 mg in 500 µl, overnight, 4 °C) of transiently transfected HEK293T cells; four washes with CHAPSO buffer; eluates blotted; co-precipitated SPPL2c divided by the precipitated Frey1 or PLN variant and normalised to wild-type Frey1
"inhibition of SPPL2c-mediated processing of HA-RAMP4-2 in HEK cells (Fig. 4H, I) [1]","co-precipitated SPPL2c, percent of wild-type Frey1, normalised to the expression level [2]",Molecule
50%,–,"PLN PRSAG (3xFLAG-PLN with the Frey1 residues P11, R12, S16, A25 and G26 at the corresponding positions of its membrane anchor) (from UniProt P61014 1-52)"
–,20%,"Signal Peptide Peptidase-like 2c, C-terminally myc-tagged (SPPL2c-myc) (enzyme) EYGLVRVVSKNWSKDYCVLYSSDYVNLPRDLHHAPLLSLHDGTKTPWCPDEDSFHQAQDSSPRQRPLHQTTTMVTRGNCSFYAKGWLAQDQGAQGLLIVSRARNQQCSDTISKPQDPSKPWPALTIPVAVLRYTDMLDIVSHTYGDTDVRVAMFAPLEPVTDYNMAIIFILAVGTVAAGGYWAGLMEANKLQRRQAQRGGGLGGHNQQQTVAAERSQRAWEDDDFEDAPMDFTPAMTGAVVTMSCSIMILLYFFYDCFVYVMIGIFSLGASTGLYSCLAPILCHLPLWRYQWVLPGQRVSVTWPLLLLAGLCAMVTVLWVIHRNEDHWAWLLQDTLGVAYCLFVLRRVRLPTFKNCTLFLLALLAFDVFFVFITPLFTKTGESIMVEVASGPADSSSHERLPMVLKVPRLSFSALTLCNQPFSILGFGDIVVPGFLVAYCHRFDMQVQSRQVYYMACTVAYAVGLLVTFVAMILMQMGQPALLYLVSSTLLTSLAVATCRQEFTLFWTGQGRAKIPAEPVAQPCIASAVGSKMKLEDAKDSRTTNRFEQAVDGESGDLESSTGDDMAEMVTLSEDEATSPEGHSESSEGWSDTNLDPNELPSGSPMALEAMLIPLIQPIPHPSELGHIRTQSRVHDSSLPWMGLHKRKGLKVKKSMSAQAPL"
